The RNAGym collection of RNA variant scans (doi:10.7554/elife.80360)

B1: CPEB3 Ribozyme (parent)
chain: GGGGGCCACAGCAGAAGCGUUCACGUCGCGGCCCCUGUCAGAUUCUGGUGAAUCUGCGAAUUCUGCUGU

Variants of: B1
Test: self-cleavage, relative activity (ratio to wild type); higher = more cleavage; co-transcriptional

Variant | self-cleavage
GGGGGCCACAGCAGAAGCGUUCACGUCGCGGCCCCUGUCAGAUUCUGGCGAAUCUGCGAUUUCUGCUGU [U49C A60U] | 0.535
GGGGGCCACAGCAGAAGCGUUCACGUCGCGGCCCCUGUCAGAUUCUGGCGAAUCUGCGACUUCUGCUGU [U49C A60C] | 0.354
GGGGGCCACAGCAGAAGCGUUCACGUCGCGGCCCCUGUCAGAUUCUGGAGAAUCAGCGAAUUCUGCUGU [U49A U55A] | 0.968
GGGGGCCACAGCAGAAGCGUUCACGUCGCGGCCCCUGUCAGAUUCUGGAGAAUCUGCGAAUUGUGCUGU [U49A C63G] | 0.878
GGGGGCCACAGCAGAAGCGUUCACGUCGCGGCCCCUGUCAGAUUCUGGAGAAUCUGCGAAUUAUGCUGU [U49A C63A] | 0.943
GGGGGCCACAGCAGAAGCGUUCACGUCGCGGCCCCUGUCAGAUUCUGGCGUAUCUGCGAAUUCUGCUGU [U49C A51U] | 0.887
GGGGGCCACAGCAGAAGCGUUCACGUCGCGGCCCCUGUCAGAUUCUGGCGCAUCUGCGAAUUCUGCUGU [U49C A51C] | 0.981
GGGGGCCACAGCAGAAGCGUUCACGUCGCGGCCCCUGUCAGAUUCUGGCGAAUCUGCGAAUUCCGCUGU [U49C U64C] | 0.907
GGGGGCCACAGCAGAAGCGUUCACGUCGCGGCCCCUGUCAGAUUCUGGGGACUCUGCGAAUUCUGCUGU [U49G A52C] | 0.952
GGGGGCCACAGCAGAAGCGUUCACGUCGCGGCCCCUGUCAGAUUCUGGAAAAUCUGCGAAUUCUGCUGU [U49A G50A] | 0.995
GGGGGCCACAGCAGAAGCGUUCACGUCGCGGCCCCUGUCAGAUUCUGGACAAUCUGCGAAUUCUGCUGU [U49A G50C] | 1.02
GGGGGCCACAGCAGAAGCGUUCACGUCGCGGCCCCUGUCAGAUUCUGGAGAAUCUGCGAAUUCUGCUGG [U49A U69G] | 1.06
GGGGGCCACAGCAGAAGCGUUCACGUCGCGGCCCCUGUCAGAUUCUGGCGAAUCUGCUAAUUCUGCUGU [U49C G58U] | 0.988
GGGGGCCACAGCAGAAGCGUUCACGUCGCGGCCCCUGUCAGAUUCUGGCGAAUCUGCAAAUUCUGCUGU [U49C G58A] | 0.911
GGGGGCCACAGCAGAAGCGUUCACGUCGCGGCCCCUGUCAGAUUCUGGGGCAUCUGCGAAUUCUGCUGU [U49G A51C] | 0.939
GGGGGCCACAGCAGAAGCGUUCACGUCGCGGCCCCUGUCAGAUUCUGGCGAAUCCGCGAAUUCUGCUGU [U49C U55C] | 0.795
GGGGGCCACAGCAGAAGCGUUCACGUCGCGGCCCCUGUCAGAUUCUGGCGAAUCAGCGAAUUCUGCUGU [U49C U55A] | 0.936
GGGGGCCACAGCAGAAGCGUUCACGUCGCGGCCCCUGUCAGAUUCUGGAGAAACUGCGAAUUCUGCUGU [U49A U53A] | 0.984
GGGGGCCACAGCAGAAGCGUUCACGUCGCGGCCCCUGUCAGAUUCUGGAGAAGCUGCGAAUUCUGCUGU [U49A U53G] | 0.95
GGGGGCCACAGCAGAAGCGUUCACGUCGCGGCCCCUGUCAGAUUCUGGCGAAUCUGCGAAUCCUGCUGU [U49C U62C] | 0.827
GGGGGCCACAGCAGAAGCGUUCACGUCGCGGCCCCUGUCAGAUUCUGGCGAAUCUGCGAAUGCUGCUGU [U49C U62G] | 0.932
GGGGGCCACAGCAGAAGCGUUCACGUCGCGGCCCCUGUCAGAUUCUGGAGAAUCUGCCAAUUCUGCUGU [U49A G58C] | 1.02
GGGGGCCACAGCAGAAGCGUUCACGUCGCGGCCCCUGUCAGAUUCUGGAGAAUCUGCUAAUUCUGCUGU [U49A G58U] | 0.972
GGGGGCCACAGCAGAAGCGUUCACGUCGCGGCCCCUGUCAGAUUCUGGCGAAUCUGCGAAUUCUGCAGU [U49C U67A] | 0.946
GGGGGCCACAGCAGAAGCGUUCACGUCGCGGCCCCUGUCAGAUUCUGGCGAAUCUGCGAAUUCUGCGGU [U49C U67G] | 0.969
GGGGGCCACAGCAGAAGCGUUCACGUCGCGGCCCCUGUCAGAUUCUGGCGAAUCUGCGAAUUCUGCCGU [U49C U67C] | 0.986

Variant | self-cleavage
GGGGGCCACAGCAGAAGCGUUCACGUCGCGGCCCCUGUCAGAUUCUGGCGAAUCUCCGAAUUCUGCUGU [U49C G56C] | 0.778
GGGGGCCACAGCAGAAGCGUUCACGUCGCGGCCCCUGUCAGAUUCUGGCGAAUCUGCGAAUUCUGUUGU [U49C C66U] | 0.973
GGGGGCCACAGCAGAAGCGUUCACGUCGCGGCCCCUGUCAGAUUCUGGCGAAUCUGCGAAUUCUGGUGU [U49C C66G] | 0.879
GGGGGCCACAGCAGAAGCGUUCACGUCGCGGCCCCUGUCAGAUUCUGGAGAAUCUGCGAAUUCUGCAGU [U49A U67A] | 1.05
GGGGGCCACAGCAGAAGCGUUCACGUCGCGGCCCCUGUCAGAUUCUGGCGAAUCUGCGAAGUCUGCUGU [U49C U61G] | 0.829
GGGGGCCACAGCAGAAGCGUUCACGUCGCGGCCCCUGUCAGAUUCUGGAGAAUCUGCGAAUUCUCCUGU [U49A G65C] | 0.476
GGGGGCCACAGCAGAAGCGUUCACGUCGCGGCCCCUGUCAGAUUCUGGAGAAUCUGCGAAUUCUACUGU [U49A G65A] | 0.934
GGGGGCCACAGCAGAAGCGUUCACGUCGCGGCCCCUGUCAGAUUCUGGAGAAUCUGCGAAUCCUGCUGU [U49A U62C] | 0.825
GGGGGCCACAGCAGAAGCGUUCACGUCGCGGCCCCUGUCAGAUUCUGGAGAAUCUGCGAAUACUGCUGU [U49A U62A] | 0.99
GGGGGCCACAGCAGAAGCGUUCACGUCGCGGCCCCUGUCAGAUUCUGGCGAACCUGCGAAUUCUGCUGU [U49C U53C] | 0.948
GGGGGCCACAGCAGAAGCGUUCACGUCGCGGCCCCUGUCAGAUUCUGGCGAAACUGCGAAUUCUGCUGU [U49C U53A] | 0.962
GGGGGCCACAGCAGAAGCGUUCACGUCGCGGCCCCUGUCAGAUUCUGGCGAAGCUGCGAAUUCUGCUGU [U49C U53G] | 0.859
GGGGGCCACAGCAGAAGCGUUCACGUCGCGGCCCCUGUCAGAUUCUGGCGAAUUUGCGAAUUCUGCUGU [U49C C54U] | 0.965
GGGGGCCACAGCAGAAGCGUUCACGUCGCGGCCCCUGUCAGAUUCUGGCGAAUGUGCGAAUUCUGCUGU [U49C C54G] | 0.789
GGGGGCCACAGCAGAAGCGUUCACGUCGCGGCCCCUGUCAGAUUCUGGAGAAUGUGCGAAUUCUGCUGU [U49A C54G] | 0.947
GGGGGCCACAGCAGAAGCGUUCACGUCGCGGCCCCUGUCAGAUUCUGGAGAAUAUGCGAAUUCUGCUGU [U49A C54A] | 0.641
GGGGGCCACAGCAGAAGCGUUCACGUCGCGGCCCCUGUCAGAUUCUGGAGAAUUUGCGAAUUCUGCUGU [U49A C54U] | 0.995
GGGGGCCACAGCAGAAGCGUUCACGUCGCGGCCCCUGUCAGAUUCUGGCGAAUCUGCGAAUUAUGCUGU [U49C C63A] | 0.882
GGGGGCCACAGCAGAAGCGUUCACGUCGCGGCCCCUGUCAGAUUCUGGCGAAUCUGCGAAUUGUGCUGU [U49C C63G] | 0.832
GGGGGCCACAGCAGAAGCGUUCACGUCGCGGCCCCUGUCAGAUUCUGGAGAAUCUGCGAAUUCGGCUGU [U49A U64G] | 0.835
GGGGGCCACAGCAGAAGCGUUCACGUCGCGGCCCCUGUCAGAUUCUGGAGAAUCUGCGAAUUCCGCUGU [U49A U64C] | 0.919
GGGGGCCACAGCAGAAGCGUUCACGUCGCGGCCCCUGUCAGAUUCUGGAGAAUCUGCGAAUUCUGAUGU [U49A C66A] | 0.911
GGGGGCCACAGCAGAAGCGUUCACGUCGCGGCCCCUGUCAGAUUCUGGAGAAUCUGCGAAUUCUGGUGU [U49A C66G] | 0.96
GGGGGCCACAGCAGAAGCGUUCACGUCGCGGCCCCUGUCAGAUUCUGGAGAAUCUGCGAUUUCUGCUGU [U49A A60U] | 0.582
GGGGGCCACAGCAGAAGCGUUCACGUCGCGGCCCCUGUCAGAUUCUGGCGAAUCUGGGAAUUCUGCUGU [U49C C57G] | 0.265
GGGGGCCACAGCAGAAGCGUUCACGUCGCGGCCCCUGUCAGAUUCUGGCGAAUCUGAGAAUUCUGCUGU [U49C C57A] | 0.216

Variant | self-cleavage
GGGGGCCACAGCAGAAGCGUUCACGUCGCGGCCCCUGUCAGAUUCUGGCGAAUCUGUGAAUUCUGCUGU [U49C C57U] | 0.345
GGGGGCCACAGCAGAAGCGUUCACGUCGCGGCCCCUGUCAGAUUCUGGCGAAUCUGCGAAUUCUUCUGU [U49C G65U] | 0.79
GGGGGCCACAGCAGAAGCGUUCACGUCGCGGCCCCUGUCAGAUUCUGGCGAAUCUGCGAAUUCUACUGU [U49C G65A] | 0.89
GGGGGCCACAGCAGAAGCGUUCACGUCGCGGCCCCUGUCAGAUUCUGGCGAAUCUGCGAAUUCUCCUGU [U49C G65C] | 0.634
GGGGGCCACAGCAGAAGCGUUCACGUCGCGGCCCCUGUCAGAUUCUGGCGAAUCUGCGUAUUCUGCUGU [U49C A59U] | 0.811
GGGGGCCACAGCAGAAGCGUUCACGUCGCGGCCCCUGUCAGAUUCUGGCGAAUCUGCGGAUUCUGCUGU [U49C A59G] | 0.985
GGGGGCCACAGCAGAAGCGUUCACGUCGCGGCCCCUGUCAGAUUCUGGCGAAUCUGCGCAUUCUGCUGU [U49C A59C] | 0.764
GGGGGCCACAGCAGAAGCGUUCACGUCGCGGCCCCUGUCAGAUUCUGGCGAAUCUGCGAAUUCUGCUGA [U49C U69A] | 1.04
GGGGGCCACAGCAGAAGCGUUCACGUCGCGGCCCCUGUCAGAUUCUGGCGAAUCUGCGAAUUCUGCUGG [U49C U69G] | 1.05
GGGGGCCACAGCAGAAGCGUUCACGUCGCGGCCCCUGUCAGAUUCUGGCGAAUCUGCGAAUUCUGCUGC [U49C U69C] | 1.04
GGGGGCCACAGCAGAAGCGUUCACGUCGCGGCCCCUGUCAGAUUCUGGCGAAUCUGCGAAUUCUGCUCU [U49C G68C] | 0.998
GGGGGCCACAGCAGAAGCGUUCACGUCGCGGCCCCUGUCAGAUUCUGGCGAAUCUGCGAAUUCUGCUAU [U49C G68A] | 1.01
GGGGGCCACAGCAGAAGCGUUCACGUCGCGGCCCCUGUCAGAUUCUGGCGAAUCUGCGAAUUCUGCUUU [U49C G68U] | 1.03
GGGGGCCACAGCAGAAGCGUUCACGUCGCGGCCCCUGUCAGAUUCUGGAGAAUCUGCGAAAUCUGCUGU [U49A U61A] | 0.979
GGGGGCCACAGCAGAAGCGUUCACGUCGCGGCCCCUGUCAGAUUCUGGAGAAUCUGCGAAGUCUGCUGU [U49A U61G] | 0.904
GGGGGCCACAGCAGAAGCGUUCACGUCGCGGCCCCUGUCAGAUUCUGGAGAAUCUGGGAAUUCUGCUGU [U49A C57G] | 0.346
GGGGGCCACAGCAGAAGCGUUCACGUCGCGGCCCCUGUCAGAUUCUGGAGAAUCUGAGAAUUCUGCUGU [U49A C57A] | 0.273
GGGGGCCACAGCAGAAGCGUUCACGUCGCGGCCCCUGUCAGAUUCUGGAGAAUCUGCGAAUUCUGCUCU [U49A G68C] | 0.994
GGGGGCCACAGCAGAAGCGUUCACGUCGCGGCCCCUGUCAGAUUCUGGAGAAUCUGCGAAUUCUGCUAU [U49A G68A] | 1.02
GGGGGCCACAGCAGAAGCGUUCACGUCGCGGCCCCUGUCAGAUUCUGGAGAAUCUUCGAAUUCUGCUGU [U49A G56U] | 0.991
GGGGGCCACAGCAGAAGCGUUCACGUCGCGGCCCCUGUCAGAUUCUGGAGAAUCUACGAAUUCUGCUGU [U49A G56A] | 1
GGGGGCCACAGCAGAAGCGUUCACGUCGCGGCCCCUGUCAGAUUCUGGCCAAUCUGCGAAUUCUGCUGU [U49C G50C] | 1.03
GGGGGCCACAGCAGAAGCGUUCACGUCGCGGCCCCUGUCAGAUUCUGGCUAAUCUGCGAAUUCUGCUGU [U49C G50U] | 1.03
GGGGGCCACAGCAGAAGCGUUCACGUCGCGGCCCCUGUCAGAUUCUGGCGAGUCUGCGAAUUCUGCUGU [U49C A52G] | 0.972
GGGGGCCACAGCAGAAGCGUUCACGUCGCGGCCCCUGUCAGAUUCUGGCGAUUCUGCGAAUUCUGCUGU [U49C A52U] | 0.93
GGGGGCCACAGCAGAAGCGUUCACGUCGCGGCCCCUGUCAGAUUCUGGCGACUCUGCGAAUUCUGCUGU [U49C A52C] | 1.03
